The text below walks through data of article PMC9732051, “Divergent self-association properties of paralogous proteins TRIM2 and TRIM3 regulate their E3 ligase activity” (Nature Communications, 2022).

Broadly, the Kd is the concentration at which binding is half-saturated. What is called stoichiometry N is a count of units in the complex or per binding partner.

Numbering of substitutions follows the chain as printed. Numbers in names are those of the source.

The target of data set [1] is 15N-labelled UBE2D3 (C85S) (UniProt P61077 1-147, mutation of the catalytic cysteine (C85) to serine). Description: NMR; residue K101.
Target sequence in this assay (P61077 whole entry C85S): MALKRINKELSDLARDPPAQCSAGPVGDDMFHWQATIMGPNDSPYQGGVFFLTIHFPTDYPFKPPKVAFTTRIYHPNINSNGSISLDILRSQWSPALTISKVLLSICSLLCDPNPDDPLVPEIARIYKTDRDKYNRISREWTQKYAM
Data set [2] concerns the molecule itself. Description: SEC-MALLS; Superdex 75 or 200 10/300 GL Increase; 20 mM HEPES pH 7.5, 150 mM NaCl, 0.5 mM TCEP, 3 mM NaN3; 25 °C; 100 μl samples at multiple concentrations (5, 3, 2 and 1 mg/ml in Fig. 1b).
The target of data set [3] is T1, 15N-labelled UBE2D3 (C85S) (UniProt P61077 1-147, mutation of the catalytic cysteine (C85) to serine).
T1 construct: UBE2D3 with the catalytic cysteine (C85) mutated to serine; Uniformly 15N-enriched; source: bacteria grown in M9 minimal medium with 15N-ammonium chloride
Description: NMR titration; 1H-15N HSQC of 200 µM 15N-UBE2D3 (C85S) titrated with unlabelled RING (0 to 2 molar equivalents); 298 K; 25 mM Na-phosphate pH 7.0, 150 mM NaCl; Kd from fits of chemical shift changes. Conditions: both partners purified.
T1 sequence (P61077 whole entry C85S): as above

B1: human TRIM2 RING (2-95) (domain or fragment, UniProt Q9C040 2-95, looked up)
chain: ASEGTNIPSPVVRQIDKQFLICSICLERYKNPKVLPCLHTFCERCLQNYIPAHSLTLSCPVCRQTSILPEKGVAALQNNFFITNLMDVLQRTPG
notes: human TRIM2, RING construct, residues 2-95; likely on this pET49b construct too; also called T2R; RING1; source: E. coli BL21 (DE3), purified (Ni-NTA, His6 cleaved by HRV 3C, SEC); not shown: His6, N-terminal, cleaved
In the case of B1, the values for the Kd in data set [1] and in data set [3] were 643 µM and roughly 590 µM, respectively. Further, in data set [2], the “stoichiometry N” value was determined as 2.

B2: chimera of the TRIM2 N- and C-terminal α-helices (2-16/84-95) and the TRIM3 core RING (16-82) (other, human, UniProt Q9C040 2-16, looked up)
chain: B1 chain with I21V, E27D, K30Q, N31C, H53Q, K71Q, A74S
notes: human TRIM2, N-terminal α-helix, residues 2-16; human TRIM3, core RING domain, residues 16-82; human TRIM2, C-terminal α-helix, residues 84-95; also called T2αs-T3Rcore; T2Rαs-T3Rcore; source: E. coli BL21 (DE3), purified (Ni-NTA, His6 cleaved by HRV 3C, SEC); not shown: His6, N-terminal, cleaved
Take B2: the binding result in data set [2] is listed as “binds”.

B3: human TRIM2 tripartite motif RBCC (2-316) (domain or fragment, UniProt Q9C040 2-316, looked up)
chain: ASEGTNIPSPVVRQIDKQFLICSICLERYKNPKVLPCLHTFCERCLQNYIPAHSLTLSCPVCRQTSILPEKGVAALQNNFFITNLMDVLQRTPGSNAEESSILETVTAVAAGKPLSCPNHDGNVMEFYCQSCETAMCRECTEGEHAEHPTVPLKDVVEQHKASLQVQLDAVNKRLPEIDSALQFISEIIHQLTNQKASIVDDIHSTFDELQKTLNVRKSVLLMELEVNYGLKHKVLQSQLDTLLQGQESIKSCSNFTAQALNHGTETEVLLVKKQMSEKLNELADQDFPLHPRENDQLDFIVETEGLKKSIHNLG
notes: human TRIM2, RBCC construct, residues 2-316; also called TRIM2 RBCC; source: E. coli BL21 (DE3), purified (Ni-NTA, His6 cleaved by HRV 3C, SEC); not shown: His6, N-terminal, cleaved
Consider B3, for which the “stoichiometry N” value in data set [2] was 4.

B4: human TRIM3 tripartite motif RBCC (2-313) (domain or fragment, UniProt O75382 2-313, looked up)
chain: AKREDSPGPEVQPMDKQFLVCSICLDRYQCPKVLPCLHTFCERCLQNYIPAQSLTLSCPVCRQTSILPEQGVSALQNNFFISSLMEAMQQAPDGAHDPEDPHPLSVVAGRPLSCPNHEGKTMEFYCEACETAMCGECRAGEHREHGTVLLRDVVEQHKAALQRQLEAVRGRLPQLSAAIALVGGISQQLQERKAEALAQISAAFEDLEQALQQRKQALVSDLETICGAKQKVLQSQLDTLRQGQEHIGSSCSFAEQALRLGSAPEVLLVRKHMRERLAALAAQAFPERPHENAQLELVLEVDGLRRSVLNLG
notes: human TRIM3, RBCC construct, residues 2-313; also called TRIM3 RBCC; source: E. coli BL21 (DE3), purified (Ni-NTA, His6 cleaved by HRV 3C, SEC); not shown: His6, N-terminal, cleaved
For B4, the “stoichiometry N” value in data set [2] amounted to 2.

B5: human TRIM3 RING (2-95) (domain or fragment)
chain: GPGAKREDSPGPEVQPMDKQFLVCSICLDRYQCPKVLPCLHTFCERCLQNYIPAQSLTLSCPVCRQTSILPEQGVSALQNNFFISSLMEAMQQAPDG
notes: tripeptide Gly-Pro-Gly left at the N-terminus by 3C protease cleavage; human TRIM3, RING construct, residues 2-95; also called T3R; source: E. coli BL21 (DE3), purified (Ni-NTA, His6 cleaved by HRV 3C, SEC); not shown: His6, N-terminal, cleaved
Consider B5, for which the Kd in data set [3] is roughly 300 µM.

B6: human TRIM2 RING-B-box2 (2-156) (domain or fragment, UniProt Q9C040 2-156, looked up)
chain: ASEGTNIPSPVVRQIDKQFLICSICLERYKNPKVLPCLHTFCERCLQNYIPAHSLTLSCPVCRQTSILPEKGVAALQNNFFITNLMDVLQRTPGSNAEESSILETVTAVAAGKPLSCPNHDGNVMEFYCQSCETAMCRECTEGEHAEHPTVPLKD
notes: human TRIM2, RB2 construct, residues 2-156; also called TRIM2 RB2; source: E. coli BL21 (DE3), purified (Ni-NTA, His6 cleaved by HRV 3C, SEC); not shown: His6, N-terminal, cleaved
Consider B6, for which the “stoichiometry N” value in data set [2] was found to be 2.
